Positions count from the first letter of the chain named.
Experiments:
BSA control protein [1] = target: T1, BSA control protein (bovine, UniProt P02769 25-607); assay: phage ELISA, serially diluted phage on coated BSA
T1 construct: Unconjugated BSA used as negative control coating next to SSEA-4-BSA glycoconjugate; also called bovine serum albumin

BSA control protein [2] = target: T1, BSA control protein; assay: ELISA, serially diluted IgG on coated BSA, anti-human IgG-HRP

T1 sequence (P02769 25-607 limits assumed): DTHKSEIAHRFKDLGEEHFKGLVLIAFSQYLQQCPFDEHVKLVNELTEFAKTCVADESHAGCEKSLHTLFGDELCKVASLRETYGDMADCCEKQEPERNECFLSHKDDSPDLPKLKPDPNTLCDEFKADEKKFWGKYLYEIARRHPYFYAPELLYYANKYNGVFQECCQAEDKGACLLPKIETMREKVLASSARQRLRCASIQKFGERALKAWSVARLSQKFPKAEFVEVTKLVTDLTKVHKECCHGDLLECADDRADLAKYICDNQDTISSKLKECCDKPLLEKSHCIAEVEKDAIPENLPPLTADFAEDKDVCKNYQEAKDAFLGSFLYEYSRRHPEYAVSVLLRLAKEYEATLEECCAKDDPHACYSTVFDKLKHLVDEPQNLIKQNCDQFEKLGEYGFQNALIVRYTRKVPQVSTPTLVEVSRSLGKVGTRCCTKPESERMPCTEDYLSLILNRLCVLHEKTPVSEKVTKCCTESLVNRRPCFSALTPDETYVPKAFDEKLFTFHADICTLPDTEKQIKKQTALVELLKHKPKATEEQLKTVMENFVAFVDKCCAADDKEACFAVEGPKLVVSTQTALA

B1: 3rd scFv phage clone of humanized MC48 variant (scFv)
scFv: QVQLQESGPGLVKPSETLSLTCTVSGFSLTSYGVSWIRQPPGKGLEWIGVIWGEGSTNYHSVLISRLTISKDNSKSQVFLKLNSLQTDDTATYYCAMTGTAYWGQGTLVTVSSGGGGSGGGGSGGGGSQIVLTQSPAIMSASPGEKVTMTCSASSSVSYMHWYQQKPGLAPRLLIYDTSKLSSGVPGRFSGSGSGTSYSLTISRLEAEDAATYYCHQWSSSPHTFGGGTKVEIKR
notes: also called 3rd humanized MC48 scFv phage; hMC48 (3rd)
binding result (BSA control protein [1]): no binding

B2: 4th scFv phage clone of humanized MC48 variant (scFv)
scFv: QVQLKESGPGLVAPSQSLSITCTVSGFSLTSYGVSWIRQPPGKGLEWIGVIWGEGSTNYHSVLISRLTISKDNSKSQVFLKLNSLQTDDTATYYCAMTGTAYWGQGTLVTVSSGGGGSGGGGSGGGGSQIVLTQSPAIMSASPGEKVTMTCSASSSVSYMHWYQQKSGTSPKRWIYDTSKLSSGVPGRFSGSGSGTSYSLTISRLEAEDAATYYCHQWSSSPHTFGGGTKVEIKR
notes: also called 4th humanized MC48 scFv phage; hMC48 (4th)
binding result (BSA control protein [1]): no binding

B3: 3rd humanized MC41 IgG (antibody, V domains shown)
VH: QVQLKESGPGLVAPSKTLSLTCTVSGFSLSSQGVYWIRQPPGKGLEWIGAIWAGGSTNYNSALMSRLSISKDNSKSQVFLKMNSLQTDDTAMYYCARVDGYRGYNMDYWGQGTSVTVSS
VL: ENVLTQSPAIMSATPGEKVTMTCSASSSVSYMHWYQQKSSTSPKLWIYDTSKLASGVPGRFSGSGSGNSYTLTISSMEAEDVATYYCFQGSGYPLTFGAGTKLEIKR
notes: also called humanized 3rd MC41
binding result (BSA control protein [2]): no binding

B4: 2nd humanized MC41 IgG (antibody, V domains shown)
VH: B3 VH with S114L
VL: B3 VL with M32L
notes: also called hMC41; humanized 2nd MC41
binding result (BSA control protein [2]): no binding

B5: chimeric MC41 (chMC41) (antibody, V domains shown)
VH: B3 VH with T17S, L20I, I37V, I48L
VL: B3 VL with T14S, T71S, I105L
notes: Intact chimeric IgG of MC41
binding result (BSA control protein [2]): no binding

Reference: patent US20160289340A1 (published 2016)
